Measurements as given in PMC4917879 (Biochemistry, 2016).

T1: Formate dehydrogenase from Candida boidinii (CbFDH) ([Candida] boidinii, UniProt A0A0A1EQY0)
T1 sequence (A0A0A1EQY0 1-364): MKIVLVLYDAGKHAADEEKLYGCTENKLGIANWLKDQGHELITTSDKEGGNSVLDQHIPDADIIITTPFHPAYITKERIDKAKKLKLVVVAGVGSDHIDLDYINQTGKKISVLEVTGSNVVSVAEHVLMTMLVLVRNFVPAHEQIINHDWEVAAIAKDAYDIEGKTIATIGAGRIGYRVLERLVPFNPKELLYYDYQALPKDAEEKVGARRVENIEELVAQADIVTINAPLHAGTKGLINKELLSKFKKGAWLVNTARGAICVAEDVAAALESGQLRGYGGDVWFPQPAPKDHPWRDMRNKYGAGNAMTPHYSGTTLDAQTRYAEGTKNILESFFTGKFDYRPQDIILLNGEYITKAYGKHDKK


Legend:
[1] = biological target: T1, Formate dehydrogenase from Candida boidinii (CbFDH); experiment: ITC and crystal structure of the ternary complex with azide at […] Å; assay type: binding
[2] = substrate: O=CO; experiment: purified protein; assay type: biochemical, [Candida] boidinii; conditions: NAD+

Molecule | Kd [1] | kcat [2] | kcat/Km [2]
NC(=O)c1ccc[n+]([C@@H]2O[C@H](COP(=O)([O-])OP(=O)(O)OC[C@H]3O[C@@H](n4cnc5c(N)ncnc54)[C@H](O)[C@@H]3O)[C@@H](O)[C@H]2O)c1 [NAD+] | 92 ± 4 µM |  | 
Formate dehydrogenase from Candida boidinii (CbFDH) ([Candida] boidinii) (protein) MKIVLVLYDAGKHAADEEKLYGCTENKLGIANWLKDQGHELITTSDKEGGNSVLDQHIPDADIIITTPFHPAYITKERIDKAKKLKLVVVAGVGSDHIDLDYINQTGKKISVLEVTGSNVVSVAEHVLMTMLVLVRNFVPAHEQIINHDWEVAAIAKDAYDIEGKTIATIGAGRIGYRVLERLVPFNPKELLYYDYQALPKDAEEKVGARRVENIEELVAQADIVTINAPLHAGTKGLINKELLSKFKKGAWLVNTARGAICVAEDVAAALESGQLRGYGGDVWFPQPAPKDHPWRDMRNKYGAGNAMTPHYSGTTLDAQTRYAEGTKNILESFFTGKFDYRPQDIILLNGEYITKAYGKHDKK |  | 5.6 ± 0.2 s⁻¹ | 1400 ± 200 M⁻¹ s⁻¹
